Earlier results in paper PMC4086743 (Amino acids, 2012).

Key:
[1] = tested on: MMP7
[2] = tested on: chymotrypsin
[3] = tested on: trypsin

| Molecule | resistance to proteolysis by MMP7 [1] | sensitivity to chymotrypsin [2] | sensitivity to trypsin [3] |
| --- | --- | --- | --- |
| proCrp4: full-length precursor of Crp4 with electronegative proregion, recombinant (protein, UniProt P28311 20-92, looked up, pro-form) pro-form: DPIQNTDEETKTEEQPGEEDQAVSISFGGQEGSALHEKSLRGLLCYCRKGHCKRGERVRGTCGIRFLYCCPRR | completely resistant |  |  |
| HD5: human Paneth cell α-defensin HD5 (peptide, UniProt Q01523 20-94, looked up, Defensin-5) Defensin alpha 5: ESLQERADEATTQKQSGEDNQDLAISFAGNGLSALRTSGSQARATCYCRTGRCATRESLSGVCEISGRLYRLCCR |  | insensitive | insensitive |
